Square brackets hold non-standard residues; d marks the D form. Peptide text beside a SMILES is read from it. * marks the point of attachment. X1 = C[C@]12CCC(=O)C=C1CC[C@@H]1[C@@H]2[C@@H](O)C[C@@]2(C)[C@H]1CC[C@]2(O)C(=O)COC(=O)C*; Biotin = O=C1N[C@H]2[C@H](CS[C@H]2CCCCC(=O)*)N1; Ahx = NCCCCCC(=O)O

For series [1], the system named is CD3+ T cells in inflamed skin. The following applies: mouse, in vivo.
Series [2] deals with full thickness human skin grafted onto the back of a SCID mouse. The following applies: in vivo.
Series [3] has as its system skin of nude mice. Put plainly: Penetration of hydrocortisone-biotinylated D-arginine conjugates into skin of nude mice. The format is in vivo. The settings on record: back of nude mice, in PBS, 30, 60, 120 minutes. As for the experimental part:
(§1) Slides were analyzed by fluorescent microscopy.

Series [4] deals with abdominal skin of nude mice. Put plainly: Penetration of Cu-DTPA-r7 complex into skin of nude mice (blue color). It counts as in vivo. The settings on record: abdominal region of nude mice, 15, 30 and 45 minutes. As for the experimental part:
Metal diethylenetriaminepentaacetic acid (DTPA) complexes were formed by mixing equimolar amounts of metal salts with DTPA in water for 18 hours. At the end of this time, the solutions were centrifuged, frozen and lyophilized. The dried powder was characterized by mass spectrometry and used in solid phase peptide synthesis. The metal-DTPA complexes were attached to polymers of D- or L-arginine that were still attached to solid-phase resin used in peptide synthesis. The metal-DTPA complexes were attached using an aminocaproic acid spacer. The solid phase peptide synthesis techniques were described in Example 1, with the exception that cleavage of the peptide-DTPA -metal complex in trifluoroacetic acid released the metal. The metal is replaced after HPLC purification and lyophilization of the peptide-DTPA complex. Replacement of the metal involved incubation of equimolar amounts of the metal salt with the peptide-aminocaproic acid-DTPA complex and subsequent lyophilization.
Varying concentrations (1 M to 1 mM) of the Cu-DTPA -aca-r7 complex were applied to the abdominal region of nude mice for 15, 30 and 45 minutes. As controls, an equimolar amount of the Cu-DTPA complex was spotted onto the abdominal region.

A short description of series [5]: pH dependent stability / release of releasable Cyclosporin A conjugate. The format is physicochemical. The following applies: acidic pH vs physiological pH, absence of serum. An excerpt:
See, e.g., R. E. Handschumacher, et al., Science 226, 544-7 (1984).
Another modification in the design of the releasable conjugate was the use of L-arginine (R), and not D-arginine (r) in the transporter.

Series [6] concerns skin of nude mice. Put plainly: Penetration of taxol-biotinylated D-arginine conjugates into skin of nude mice. The following applies: back of nude mice, 1 mM-100 μM in PBS, 30, 60, 120 minutes. It counts as in vivo. The protocol:
as §1

As to `C/C=C/C[C@@H](C)[C@@H](OC(=O)CSC[C@H](NC(=O)[C@@H](CCCNC(=N)N)NC(=O)[C@@H](CCCNC(=N)N)NC(=O)[C@@H](CCCNC(=N)N)NC(=O)[C@@H](CCCNC(=N)N)NC(=O)[C@@H](CCCNC(=N)N)NC(=O)[C@@H](CCCNC(=N)N)NC(=O)[C@@H](CCCNC(=N)N)NC(=O)CCCCCNC(=O)CCCC[C@@H]1SC[C@@H]2NC(=O)N[C@@H]21)C(N)=O)[C@H]1C(=O)N[C@@H](CC)C(=O)N(C)CC(=O)N(C)[C@@H](CC(C)C)C(=O)N[C@@H](C(C)C)C(=O)N(C)[C@@H](CC(C)C)C(=O)N[C@@H](C)C(=O)N[C@H](C)C(=O)N(C)[C@@H](CC(C)C)C(=O)N(C)[C@@H](CC(C)C)C(=O)N(C)[C@@H](C(C)C)C(=O)N1C` [biotin r7 CsA, B-aca-r7-Cys-O-acyl-Cyclosporin A], the “presence in CD3+ T cells of inflamed skin” value in series [1] was “found in all CD3[+] T cells”. Also, in series [2], the “penetration into human skin” value is “penetrated human epidermis and dermis”. For `C[C@H](NC(=O)[C@H](C)NC(=O)[C@@H](CCCNC(=N)N)NC(=O)[C@@H](CCCNC(=N)N)NC(=O)[C@@H](CCCNC(=N)N)NC(=O)[C@@H](CCCNC(=N)N)NC(=O)[C@@H](CCCNC(=N)N)NC(=O)[C@@H](CCCNC(=N)N)NC(=O)[C@@H](CCCNC(=N)N)NC(=O)CCCCCNC(=O)CCCC[C@@H]1SC[C@@H]2NC(=O)N[C@@H]21)C(=O)N[C@@H](CSCC(=O)OCC(=O)[C@@]1(O)CC[C@H]2[C@@H]3CCC4=CC(=O)CC[C@]4(C)[C@H]3[C@@H](O)C[C@@]21C)C(N)=O` ({Biotin-Ahx}-[dR][dR][dR][dR][dR][dR][dR]AAC(X1)-NH2), in the series with skin of nude mice [3], the “penetration into skin (fluorescent streptavidin staining)” value (“penetration into skin” below) is “effectively entered into and across the epidermis and into the dermis”.

For `C[C@H](NC(=O)[C@H](C)NC(=O)[C@@H](CCCNC(=N)N)NC(=O)[C@@H](CCCNC(=N)N)NC(=O)[C@@H](CCCNC(=N)N)NC(=O)[C@@H](CCCNC(=N)N)NC(=O)[C@@H](CCCNC(=N)N)NC(=O)CCCCCNC(=O)CCCC[C@@H]1SC[C@@H]2NC(=O)N[C@@H]21)C(=O)N[C@@H](CSCC(=O)OCC(=O)[C@@]1(O)CC[C@H]2[C@@H]3CCC4=CC(=O)CC[C@]4(C)[C@H]3[C@@H](O)C[C@@]21C)C(N)=O` ({Biotin-Ahx}-[dR][dR][dR][dR][dR]AAC(X1)-NH2), the “penetration into skin” value with skin of nude mice [3] is listed as “very little uptake”. Regarding “Copper-diethylenetriaminepentaacetic Acid Complex [Cu-DTPA]”, in series [4], the “blue color on skin after wiping off” value is “not where the Cu-DTPA alone was spotted”.

As for `C/C=C/C[C@@H](C)[C@@H](OC(=O)CN(Cc1ccccc1)C(=O)CNCC(=O)N[C@@H](CCCNC(=N)N)C(=O)N[C@@H](CCCNC(=N)N)C(=O)N[C@@H](CCCNC(=N)N)C(=O)N[C@@H](CCCNC(=N)N)C(=O)N[C@@H](CCCNC(=N)N)C(=O)N[C@@H](CCCNC(=N)N)C(=O)N[C@@H](CCCNC(=N)N)C(N)=O)[C@H]1C(=O)N[C@@H](CC)C(=O)N(C)CC(=O)N(C)[C@@H](CC(C)C)C(=O)N[C@@H](C(C)C)C(=O)N(C)[C@@H](CC(C)C)C(=O)N[C@@H](C)C(=O)N[C@H](C)C(=O)N(C)[C@@H](CC(C)C)C(=O)N(C)[C@@H](CC(C)C)C(=O)N(C)[C@@H](C(C)C)C(=O)N1C` [releasable R7 CsA conjugate], in series [5], the pH stability result was “stable at acidic pH, but labile at physiological pH”. In the case of `CC(=O)O[C@H]1C(=O)[C@@]2(C)[C@H]([C@H](OC(=O)c3ccccc3)[C@]3(O)C[C@H](OC(=O)[C@H](OC(=O)NCCCC[C@H](NC(=O)[C@@H](CCCNC(=N)N)NC(=O)[C@@H](CCCNC(=N)N)NC(=O)[C@@H](CCCNC(=N)N)NC(=O)[C@@H](CCCNC(=N)N)NC(=O)[C@@H](CCCNC(=N)N)NC(=O)CCCCCNC(=O)CCCC[C@@H]4SC[C@@H]5NC(=O)N[C@@H]54)C(N)=O)[C@@H](NC(=O)c4ccccc4)c4ccccc4)C(C)=C1C3(C)C)[C@]1(OC(C)=O)CO[C@@H]1C[C@@H]2O` [B-aca-r5-K-taxol], in the series on skin of nude mice [6], the “penetration into skin” value is “very little uptake”.

These data come from patent publication US6730293B1, “Compositions and methods for treating inflammatory diseases of the skin” (CellGate, Inc., priority 1999, dated 2004).
